This is an account of results in the DeepSol protein solubility set.

The series is described as follows: soluble on expression in E. coli; label from the status in PepcDB or PDB records.
With “MSLLSGSFLEENMKHLDTYIAFDLEFNTVNDVSHVIQGSAVKYDHHKEVDSFDTYVYTDVPLQSFINGLTGITSNKIAAAPKVEEVMAAFKNFVGELPLIGYNAQKSDLPILAENGLDLRDQYQIDLFDEAYDRRSADLNGIANLRLQTVATFLGIKGRGHNSLEDARMTAAIYESFLETDTNKAYLSQQEEVITDNPFVALGGFFDEGHHHHHH”, the “soluble on expression in E. coli” value is “not soluble”.
In the case of “MSLLSRSVKRELVGKSAQMEQIRSHVAQYALLNRHVVIVGESGCGRHTIAYLIHQLTTNNGHLPWVELVASAKTEWSTVEPKVQESAGGTLLIDHIELLSEEVQRNVVQSLLNQERLNRPRTRVIAVIDQPPEQLIAQNQLLPELYYLLNQGQIDVPLLRQRPDDIAALFHYFLKQSCYKLGKPMPNVEPHYLALLRAHQWPGNVRELRNVAELYAIGIVKLAGKERLYNQEEMLSPLDELVDDYEKQVIEDALFLFSGRVADAANYLQVPRKKLYLRMKKHGLEKDAFKAREGHHHHHH” it was “not soluble”.
As for “MSLLTKSAENKRNRKDDSMRPGQQLTLSIDHQTDFGYFLTDGEDTILLHNSEMTEDIEDRDEVEVFIYVDQQERLAATMKIPIISADEYGWVEVVDKVEDMGVFVDVGLSKDALVATEHLPPYEDVWPQKGDKLYCMLKVTNRGRMFAKPAPEDIISELFTDASEDLMNKELTGTVYRLIASGSFVITDDGIRCFIHPSERKEEPRLGSRVTGRVIQVKEDGSVNLSLLPRKQDAMSVDAECILTYMRMRNGAMPYSDKSQPDDIRERFNMSKAAFKRALGHLMKNGKVYQENGWTYEKKEGGSHHHHHH”, the “soluble on expression in E. coli” value is given as “soluble”.
As for “MSLMDYGIDIWGNENFIIKNGKVCINYEKKPAIIDIVKELRDDGYKGPLLLRFPHLIQKQIENIYGNFNKARKEFGYKGGFNAVYPLKVNQYPGFVKNLVKLGKDYNYGLEAGSKAELLLAMAYNNEGAPITVNGFKDRELINIGFIAAEMGHNITLTIEGLNELEAIIDIAKERFKPKPNIGLRVRLHSAGVGIWAKSGGINSKFGLTSTELIEAVNLLKENKLLEQFTMIHFHLGSQITEIHPLKKALNEAGNIYTELRKMGAKNLKAINLGGGLAVEYSQFKNEKSRNYTLREYANDVVFILKNIAEQKKDLEPDIFIESGRFVAANHAVLIAPVLELFSQEYAENKLILKKQNPKLIDELYDLYKSIKPSNALEYLHDSIDHLESILTLFDLGYVDLQDRSNAEILTHLITKKAILLLGDKQNPADLLAIQDEVQERYLVNFSLFQSMPDFWGLEQNFPIMPLDRLDEEPTRSASIWDITCDSDGEISYSKDKPLFLHDVDVEKENYFLGFFLVGAYQEVLGMKHNLFTHPTEAIISINEKGYEVEGIIEAQSILDTLEDLDYDIHAIMDILNERISNSKLVNDKQKKHILGELYLFLNDNGYLKSIGVEGHHHHHH”, the “soluble on expression in E. coli” value is on record as “soluble”.
Turning to “MSLNANVVIAGPGTGKTTSISQKYLELVQSGVDPNDILCITFTNKAAENMRSRIIKALERSGTQIDLSVINVYTFHSFANSAIRRYGYRGIVNQNFLRKIIFDYLIRNSVFNYEREYLISRIVPQLENIIRYLGSFGIDRIENPEETAASLREIFKKRREEKKIKEDLEEITAIFIHLSKIMDEYRNAKEARGVIDYNDMIIKFLELEKKPHFKYVLVDELQDASDLQARLIKSVADDIYAVGDRKQAIFGFQGGGFGNFSNHFPDAHVNYLLTDHRNSEAVLNYAREFFLKNTKYPDQYRTELDQLKASKARGGSVEVVSGEEEAVLDLLKRFPEGKVGILARRNDQVIKISEILDSNGMRYASSALSAASDRAKKDVIAFLKMIIYGDMQSVIDALFTPFSGLQISEAYDIKESLISGNTSLQNYDLLNNLRRTYSAPGINGLIDMFEKLIIPIALAFDQRYFLTVERIYKNLREYLDFYGNEDRSDLINYLEICDDEVQEIDADERISVLTVHKAKGLEFDHVIYLPKAKKDEKMSAVDLVAEQMIRLKTEGHHHHHH”, the “soluble on expression in E. coli” value was “soluble”.
With “MSLNAPQWLGAEGEKIAARHLAAKGYRIVARNYRFHRNEIDIIAFDGEALCFIEVKTRASLGKGHPAESVTRSKQKEIARAAAGYLASLDDPWITCRFDVIAVLALSIDERSIRKYEIEHIKAAFMVGDKGEGHHHHHH” the entry was “soluble”; with “MSLNDIIEQLQELSETVPVPLELPTFEQLVEVEEQILIGLPNDLKEFLMYGSDVIYGTLEPVTAADPSSHTYLPEVACYAWSIGLPREQIAICQIGDSFYCIDEESQVMFWKKGRFSDKVWESFWHWAEDVWLNREGHHHHHH”, “soluble”.
With “MSLNDKAILVGVDGSHASYKATWWAANYAKHAGLTLQIVCAYSLPSYAAVSFDATYTAMGDDNAAHNDAQEILSKAKAIADEQGVEASTLIVTGDPASVFVELSRNYNLIVIGNRGKGGLAERLLGTTSSSLPAYAYCPIVVVPYTDDEGNLMHLNNTITKVAVGSDESKWGLKALEIAAAFADSWGAELDVISAVPNMKGSEDEGVMASFQEDLDVRIKPLEAAYPSLKINKQIVPGPAAGALTKASYDHDVVVVGSRGRGGFTGLLLGSTSQGLLQHAVGPVYVVPRKYVEAAETRLDTVPSSPADVTPKAIDDIKGVEEVPVDKAKPEVVEAIETKIDPDREGHHHHHH” the entry was “soluble”; with “MSLNERVMMINANGVPIALYNRGHLGSGHFGAVIKASLDDGTLYAAKVPYSQIVPNADATSAELEAEISSARAELVKTIRQELDVRDKLVAKGLTLTETAEQYGLPLCQMTLTLPENKATVVRRGSRLVVVSKEVMLLPLIDGSPSNSLVQSQPPFLFQRAVAREAIIALAKLHELGFAHGDVKLNNMMIDVHGFGHMLDMGSVRPVDSCVSEEDKYYLRLWAPELAKSQHTSQQTCLKRGALDVWALGLAIFEFVCFNRLPYSLSNLPSSLWSRVEHLSRLRLSDFSAKDCNESDPAVMGIVAQFLNPNPEERPELPKFVSSYTFFRQAPGVTSHLTRIPTTELSSHREGHHHHHH”, “soluble”; with “MSLNFIDEFRDKESILALKKLIEQELKNPINIMEICGGHTHSIMKYALPSILPKEINFIHGPGCPVCVMPRVRIDTAIKLASMKDTIFCTLGDLLRVPGSEISLLDLRAKGADVRALYSPLEVLEIAKQNLNKNIIFFAIGFETTTPMSALLLQKVIEEKINNVFFHINHITVPAPVEAIMNDENVKINAFLGPSHVSVITGYGIYEPLAAKFKTPIAVSGFEPVDILESVLNIIKQSNEGTFKVYNQYKRAVSKEGNVKAQNLVKKYFRVCDFEFRGLGLIKNGGLELKEEFSAYDASKKFDCTVQSKNESKACICGQILRGLAKPYDCKVFGKACTPRSPIGSCMVSGEGACAAYYKYSKVNAEGHHHHHH”, “soluble”.
With “MSLNFLDFEQPIAELEAKIDSLTAVSRQDEKLDINIDEEVHRLREKSVELTRKIFADLGAWQIAQLARHPQRPYTLDYVRLAFDEFDELAGDRAYADDKAIVGGIARLDGRPVMIIGHQKGRETKEKIRRNFGMPAPEGYRKALRLMQMAERFKMPIITFIDTPGAYPGVGAEERGQSEAIARNLREMSRLGVPVVCTVIGEGGSGGALAIGVGDKVNMLQYSTYSVISPEGCASILWKSADKAPLAAEAMGIIAPRLKELKLIDSIIPEPLGGAHRNPEAMAASLKAQLLADLADLDVLSTEDLKNRRYQRLMSYGYALEHHHHHH” the entry was “not soluble”.
On to “MSLNFPHLSKQSLGLYPVVDDVSWIERLLPLGINTIQLRIKDPYQPDLEQQIARAIELGRQYDAQVFINDYWQLAIKHGAFGVHLGQEDIEDSNLSQLSTAGICLGLSTHGYYELLRIVQINPSYIALGHIFSTTTKQMPSKPQGLVRLALYQKLNDSIPYGESVGYPTVAIGGIDQSNAEQVWQCGVSSLAVVRAITLSESPKQVIEFFDQLMNTTSTSLVMEDYRAYEGHHHHHH”, for which the “soluble on expression in E. coli” value was “not soluble”.
For “MSLNINYPAEYEIGDKVFTCIGAALFGQISAASNCWSNHVGIIIGHNGEDFLVAESRVPLSTITTLSRFIKRSSNQRYAIKRLDAGLTEQQKQRIVEQVPSRLRKLYHTGFKYESSRQFCSKFVFDIYKEALCIPVGEIETFGELLNSNPNAKLTFWKFWFLGSIPWERKTVTPASLWHHPGLVLIHAEGVETPQPELTEAVEGHHHHHH”, the “soluble on expression in E. coli” value was “not soluble”.
With “MSLNKIKILPLAIALALSGCGSDETTPIDTGSHVASPDWQDQIIYFLMIDRFNDGDSALNDQGQNEFDPTSDKKFSGGDLVGVSDKLSYIEDLGATSIWITPPVANQWWDAEQNYGGYHGYWARDFQKVDEHFGDMESYQALAREVHARNMFLIQDIVTNHVGNFFTYDDPYSYDPSLPCQGFRLIKNALPAGQELPYPLNMNECKTDGTGSYHWTPTITDHNDPVQEKTWQLSDLDDLNTSDPEVRAYLKESYRKWIREVGVDGFRIDTVKFVEHDFWSDFLHADDGVMTQAVDTGRDNFLTFGEVFETSTPYHTEGEEKMLTYIGESGSPKQLTSVLNFPLQATMTRVFASGQPTDYLRFRLEKMMEMFPNPYIMPNFIDNHDMPRFLSQGSVNDMKQALITMMSVPGIPVIYQGTEQAMSAARDAMFAGGYREDGNYVDSFDQNSEMYLFIQELAKLRTENKVMTRGEIKVIGSDKAGAGVFAFTRTLDNDEVLVVMNTSNSPMLMNQLDVEQAGGTVFKQQIMSNWADAPEQLVADENGHVTLELPAKSAVIYSKTSSNQSVNTPDLNIQLAQDWEGKTITGDIVIAGSANANEKLNLVVDGNLETAQTITVGADGQFSVTLSTRHFAIGEQQHRFAIYSTEKKAGIEDVNFVSNLSWSNTPDDTIDDAGDAQDGVGGPNGNYSLPTDPTFDKDNSQLAINKAEVFTVGSNVRLTFTMDKITDTWLPPNGFDHVGFTIFIDLPEEAATNLSELPKINASMPNGTWSRNAVVFGWQSSIYNTKGANATTWGEAVTPAPTVTVDKANNTISMDFASDALGRPESLDGIRFYVTTWDLDGLSATYRPLEQDKGPWNFSGGASDESKIWDDLPIITLSEGHHHHHH” the entry was “soluble”; with “MSLNKNEKVKIAYVGIGNRGQQIIEDFARTGMVEVVALCDVDMGAKHTQKVIGMYPKAKQFRDFRQMFDKAGKEFDAVAIATPDHSHFPISMLALASGKHVYVEKPLARTFYEAELLMQAALKRPNLATQVGNQGHSEANYFQFKAWMDAGIIKDVTAVTAHMNNEGHHHHHH”, “not soluble”; with “MSLNKVSLAQIAKAAGVSKMTASRVLRDEGGFSESTRARVMAEIDRLGYVPNRLATVFAGDQRSTFVGVSIPELGNEIFAQVLEGIDRKLGAFGHQTVLGMTEHALEQEEKWLETVLSWQPAGLIVTGRSHTPKSIQLLSGAGIPLVEIWDFNSSPLDMSVGLNHFDSGYSMGRYLTGLGYRQFGYVGTSHDTANAASARLAGYAKVIGDSGGSLKKQLLLKDAPGFYTGYYGTEQLLAANSDVEVIYYQNDNMAVGGLNYCQKRGLSIPGDIGIAGWGDLPIASILPYRLTSTAVPHLRIGMIAAEMVLSQINGEARRRSQDVGFTLIPGSTVRSQLEEGHHHHHH”, “soluble”.
With “MSLNLTIGTSKFNPPFEVWSGNNSSLYGFDIDLMQEICRRLHATCTFEAYIFDDLFPALKNREVDLVIASMIITDERKKHFIFSLPYMESNSQYITTVDSKISTFDDLHGKKIGVRKGTPYARQVLSENRNNQVIFYELIQDMLLGLSNNQVDASLMDYEAAKYWMASEPYAYKLIGKKYKLIGKKISIGEGYSIMANPDQFVLIKKINKILLEMEADGTYLRLYSEYFEGHHHHHH” the entry was “soluble”.
In the case of “MSLNLWGDRVGYSKYKYEGLLNLCLEVFQRLGYTKEDSYTIGEVLLLADLFGIESHGVQRLTLYYKGIRNGSIKVKNHMNIVKESPVSVVIDGDGGMGQIISKKAMERAIDKAKKTGIGMAIVKNSNHFGIAGYYSRMAERKGLMGIAMTNTRAIVLPTYGREQMLGTNPISIAMPARPIPFLLDMATSVITRGKVEVYSKNNQKLNYGWAMDDEGRKTDNPDKVLKLANGNTGGLLPLGGDTEIFGGHKGYGISFAVEMFTSILSGGLTSDEIRGNNNTNGVCHAFAAIDYGLFDDKNAIEKRMSAYMQKIRNSKKAYGASRIYTHGEKELEAYEDRMENGIPINENTIVEIKEICDYVDIDINNYLKEGHHHHHH” it was “soluble”.
